Results on 1 molecule are retold here after patent publication US20240192215A1.

The target in experiment [1] is T1, Peptide_096 (human).
T1 sequence (peptide): FFKKGQKVGEFSGAN
The experiment in a line: peptide microarray, 5 ug/mL.

The target in experiment [2] is T2, Peptide_097 (human).
T2 sequence (peptide): FKKGQKVGEFSGANK
The experiment in a line: peptide microarray, 5 ug/mL.

Experiment [3] deals with T3, Peptide_044 (human).
T3 sequence (peptide): FSATWCGPCKMIKPF
The experiment in a line: peptide microarray, 5 ug/mL.

The target of experiment [4] is T1, Peptide_096 (human). The experiment in a line: peptide microarray, 0.04 ug/mL.
Experiment [5] deals with T2, Peptide_097 (human). The experiment in a line: peptide microarray, 0.04 ug/mL.
Experiment [6] deals with T3, Peptide_044 (human). The experiment in a line: peptide microarray, 0.04 ug/mL.
Experiment [7] concerns the target T1, Peptide_096 (human). The experiment can be described thus: peptide microarray, head 0.08 ug (text 0.008 ug/mL).
The target in experiment [8] is T2, Peptide_097 (human). The experiment is described as above.
Experiment [9] has as its target T3, Peptide_044 (human). The experiment is described as above.
The target in another experiment is T4, M7.
T4 sequence (single chain): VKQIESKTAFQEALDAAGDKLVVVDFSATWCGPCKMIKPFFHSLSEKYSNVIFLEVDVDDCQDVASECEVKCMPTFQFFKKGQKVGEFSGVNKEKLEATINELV
The experiment can be described thus: ELISA, mutant M7 coated at 2 ug/mL, antibody concentration not given, anti-mouse Fc-HRP (Example 16). Background: In an ELISA, binding on a coated surface is turned into a signal by an enzyme label.

The target of another experiment is TRX-N-His-M2 (human) (UniProt P10599). The experiment in a line: ELISA, mutant M2 coated at 2 ug/mL, antibody concentration not given, anti-mouse Fc-HRP (Example 16).
TRX-N-His-M2 (human), sequence (P10599 whole entry): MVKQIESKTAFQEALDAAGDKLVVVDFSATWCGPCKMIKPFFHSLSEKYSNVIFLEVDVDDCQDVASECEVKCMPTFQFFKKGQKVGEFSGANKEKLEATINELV
The target of experiment [10] is T1, Peptide_096 (human). The experiment can be described thus: peptide microarray, 0.2 ug/mL.
Experiment [11] concerns the target T2, Peptide_097 (human). The experiment in a line: peptide microarray, 0.2 ug/mL.
Experiment [12] addresses T3, Peptide_044 (human). The experiment can be described thus: peptide microarray, 0.2 ug/mL.
Experiment [13] deals with T1, Peptide_096 (human). The experiment can be described thus: peptide microarray, 1 ug/mL.
The target of experiment [14] is T2, Peptide_097 (human). The experiment can be described thus: peptide microarray, 1 ug/mL.
Experiment [15] addresses T3, Peptide_044 (human). The experiment in a line: peptide microarray, 1 ug/mL.
Another experiment has as its target TRX-N-His-M1 (human) (UniProt P10599). The experiment can be described thus: ELISA, mutant M1 coated at 2 ug/mL, antibody concentration not given, anti-mouse Fc-HRP (Example 16).
For experiment [16], the target named is T1, Peptide_096 (human). The experiment in a line: peptide microarray, 0.0016 ug/mL.
Experiment [17] addresses T2, Peptide_097 (human). The experiment can be described thus: peptide microarray, 0.0016 ug/mL.
In experiment [18] the target is T3, Peptide_044 (human). The experiment in a line: peptide microarray, 0.0016 ug/mL.
The target in a further experiment is TRX-N-His-M4 (human) (UniProt P10599). The experiment in a line: ELISA, mutant M4 coated at 2 ug/mL, antibody concentration not given, anti-mouse Fc-HRP (Example 16).
TRX-N-His-M4 (human), sequence (P10599 whole entry): as above

TRX-N-His-M1 (human), sequence (P10599 whole entry): as above

B1: monoclonal antibody B264 (antibody, mouse IgG1, kappa, V domains shown)
VH: QVQLQQSGAELARPGASVKMSCKASGYTFTSYTMHWVKQRPGQGLEWIGYINPTSDYTNYNQKFKDKATLTADKSSSTAYMQLSSLTSEDSAVYFCASEGGFLYYFDYWGQGTTLTVSS
VL: DVLMTQTPLSLPVSLGDQASISCRSSQSIVHSNGNTYLEWYLQKPGQSPKLLIYKVSNRFSGVPDRFSGSGSGTDFTLKISRVEAEDLGVYYCFQGSHVPYTFGGGTKLEIKR
Turning to B1, the signal (blank-control = 1) with Peptide_096 (human) [1] amounted to 1.9; with Peptide_097 (human) [2], 2.26; with Peptide_044 (human) [3] it was 3.33; in the experiment with Peptide_096 (human) [4], 1.44; with Peptide_097 (human) [5], 1.31; in the experiment with Peptide_044 (human) [6], 2.12. The signal (blank-control = 1) with Peptide_096 (human) [7] stood at 0.94; with Peptide_097 (human) [8], 1.08; in the experiment with Peptide_044 (human) [9], 1.87; in the experiment with Peptide_096 (human) [10] it was 1.37; in the experiment with Peptide_097 (human) [11], 1.68; with Peptide_044 (human) [12], 2.3. Also, the signal (blank-control = 1) in the experiment with Peptide_096 (human) [13] came out at 2.04; with Peptide_097 (human) [14] it was 2.18; with Peptide_044 (human) [15] it was 2.93; in the experiment with Peptide_096 (human) [16] it was 0.82; with Peptide_097 (human) [17] it was 0.91; in the experiment with Peptide_044 (human) [18], 1.6. The OD 490 nm came to 0.761 in the experiment with M7, 0.094 with TRX-N-His-M2 (human), 0.0424 with TRX-N-His-M1 (human) and 0.181 in the experiment with TRX-N-His-M4 (human).
